Where “and” joins values, the source holds several entries; their conditions need not be identical. Equal entries are not always repeated.
B1: Alpha-lactalbumin, P00711 (parent)
chain: MMSFVSLLLVGILFHATQAEQLTKCEVFRELKDLKGYGGVSLPEWVCTTFHTSGYDTQAIVQNNDSTEYGLFQINNKIWCKDDQNPHSSNICNISCDKFLDDDLTDDIMCVKKILDKVGINYWLAHKALCSEKLDQWLCEKL

Variants of: B1
Conditions: Bos taurus; pH 7.4; Thermal; CD; Tris-HCl 20 mM; CaCl2 1 mM; reversible: yes(>95%); structure 1HFZ; whole UniProt chain shown

Variant | Tm | change of melting temperature, mutant - wild type (higher = more stable) [°C] | unfolding enthalpy (van 't Hoff) [kcal/mol] | ddG of mutation (higher = less stable) [kcal/mol]
MMSFVSLLLVGILFHATQAEQLTKCEVFRELKDLKGYGGVSLPEWVCTTFYTSGYDTQAIVQNNDSTEYGLFQINNKIWCKDDQNPHSSNICNISCDKFLDDDLTDDIMCVKKILDKVGINYWLAHKALCSEKLDQWLCEKL | 56.5 °C | 0.3 | 73.6 | –
MMSFVSLLLVGILFHATQAEQLTKCEVFRELKDLKGYGGVSLPEWVCTTFATSGYDTQAIVQNNDSTEYGLFQINNKIWCKDDQNPHSSNICNISCDKFLDDDLTDDIMCVKKILDKVGINYWLAHKALCSEKLDQWLCEKL | – | -11.6 | 50.4 | 2.13
MMSFVSLLLVGILFHATQAEQLTKCEVFRELKDLKGYGGVSLPEWVCTTFHTSGYDTQAIVQNNDSTEYGLFQINNKIWCKDDQNPHSSNICNISCDKFLDDDLTDDIMCVKKILDKVGINYWLAHKALCSEQLDQWLCEKL | 53.5 °C and 56.2 °C | -2.7 | 69.5 | 0.6
MMSFVSLLLVGILFHATQAEQLTKCEVFRELKDLKGYGGVSLPEWVCTTFHTSGYDTQAIVQNNDSTEYGLFQINNKIWCKDDQNPHSSNICNISCDKFLDDDLTDDIMCVKKILDKVGINYWLAHKALCSEELDQWLCEKL | 53 °C | -3.2 | 62.9 | –
MMSFVSLLLVGILFHATQAEQLTKCEVFRELKDLKGYGGVSLPEWVCTTFHTSGYDTQAIVQNNDSTEYGLFQINNKIWCKDDQNPHSSNICNISCDKFLDDDLTDDIMCVKKILDKVGINYWLAHKAECSEKLDQWLCEKL | 55.1 °C and 56.2 °C | -1.1 | 58.6 | 0.19
MMSFVSLLLVGILFHATQAEQLTKCEVFRELKDLKGYGGVSLPEWVCTTFHTSGYDTQAIVQNNDSTEYGLFQINNKIWCKDDQNPHSSNICNISCDKFLDDDLTDDIMCVKKILDKVGINYWLAHKARCSEKLDQWLCEKL | 58.1 °C and 56.2 °C | 1.9 | 76.5 | -0.43
MMSFVSLLLVGILFHATQAEQLTKCEVFRELKDLKGYGGVSLPEWVCTTFHTSGYDTQAIVQNNDSTEYGLFAINNKIWCKDDQNPHSSNICNISCDKFLDDDLTDDIMCVKKILDKVGINYWLAHKALCSEKLDQWLCEKL | 54.3 °C and 56.2 °C | -1.9 | 67.6 | 0.41
MMSFVSLLLVGILFHATQAEQLTKCEVFRELKDLKGYGGVSLPEWVCTTFHTSGYDTQAIVQNNDSTEYGLFQINNKIWCKDDQNPHSSNICNISCDKFLDDDLTDDIMCVKKILDKVGINYWLAHKALCSEKLDAWLCEKL | 52.1 °C and 56.2 °C | -4.1 | 73.4 | 0.96
MMSFVSLLLVGILFHATQAEQLTKCEVFRELKDLKGYGGVSLPEWVCTTFHTSGYDTQAIVQNNDSTEYGLFQINNKIWCKDDQNPHSSNICNISCDKFLDDDLTDDIMCVKKILDKVGINYWLAHKALCSEKLDQHLCEKL | 52.9 °C and 56.2 °C | -3.3 | 56.2 | 0.6
MMSFVSLLLVGILFHATQAEQLTKCEVFRELKDLKGYGGVSLPEWVCTTFHTSGYDTQAIAQNNDSTEYGLFQINNKIWCKDDQNPHSSNICNISCDKFLDDDLTDDIMCVKKILDKVGINYWLAHKALCSEKLDQWLCEKL | 51.7 °C and 56.2 °C | -4.5 | 64.3 | 0.93
MMSFVSLLLVGILFHATQAEQLTKCEVFRELKDLKGYGGVSLPEWVCTTFHTSGYDTQAIGQNNDSTEYGLFQINNKIWCKDDQNPHSSNICNISCDKFLDDDLTDDIMCVKKILDKVGINYWLAHKALCSEKLDQWLCEKL | – | -5.2 | 68.6 | 1.15
MMSFVSLLLVGILFHATQAEQLTKCEVFRELKDLKGYGGVSLPEWVCTTFHTSGYDTQAINQNNDSTEYGLFQINNKIWCKDDQNPHSSNICNISCDKFLDDDLTDDIMCVKKILDKVGINYWLAHKALCSEKLDQWLCEKL | 55.1 °C | -1.1 | 67.2 | –
MMSFVSLLLVGILFHATQAEQLTKCEVFRELKDLKGYGGVSLPEWVCTTFHTSGYDTQAIVQNNDSTEYGLFQINNKWWCKDDQNPHSSNICNISCDKFLDDDLTDDIMCVKKILDKVGINYWLAHKALCSEKLDQWLCEKL | 51.7 °C and 56.2 °C | -4.5 | 65 | 0.93
MMSFVSLLLVGILFHATQAEQLTKCEVFRELKDLKGYGGVSLPEWVCTTFHTSGYDTQAIVQNNDSTEYGLFQINNKIWCKDDQNPHSSNICNISCDKFLDDDLTDDIMCVKKILDKVGINYWLAAKALCSEKLDQWLCEKL | 52.1 °C and 56.2 °C | -4.1 | 60.5 | 0.79
MMSFVSLLLVGILFHATQAEQLTKCEVFRELKDLKGYGGVSLPEWVCTTFHTSGYDTQAIVQNNDSTEYGLFQINNKIWCKDDQNPHSSNICNISCDKFLDDDLTDDIMCVKKILDKVGINYWLAYKALCSEKLDQWLCEKL | 55.2 °C and 56.2 °C | -1 | 62.9 | 0.19
MMSFVSLLLVGILFHATQAEQLTKCEVFRELKDLKGYGGVSLPEWVCTTFHTSGYDTQAIVQNNDSTEYGLFQINNKIWCKDDQNPHSSNICNISCDKFLDDDLTDDIMCVKKILDKVGINYYLAHKALCSEKLDQWLCEKL | 56.2 °C | – | – | 2.44
MMSFVSLLLVGILFHATQAEQLTKCEVFRELKDLKGYGGVSLPEWVCTTFHTSGYDTQAIVQNNDSTEYGLFQINNKIWCKDDQNPHSSNICNISCDKFLDDDLTDDIMCVKKILDKVGINPWLAHKALCSEKLDQWLCEKL | 55.1 °C and 56.2 °C | -1.1 | 62.1 | 0.22
MMSFVSLLLVGILFHATQAEQLTKCEVFRELKDLKGYGGVSLPEWVCTTFHTSGYDTQAIVQNNDSTEYGLFQINNKIWCKDDQNPHSSNICNISCDKFLDDDLTDDIMCVKKILDKVGINAWLAHKALCSEKLDQWLCEKL | – | -10.7 | 64.3 | 2.39

— FireProtDB (doi:10.1093/protein/12.7.581)
